Source: article PMC5549993, “Bacterial effector NleL promotes enterohemorrhagic E. coli-induced attaching and effacing lesions by ubiquitylating and inactivating JNK” (PLoS Pathogens, 2017)
Numbering of substitutions follows the chain as printed.

Tests used:
[1] = molecular target: T1, GST-tagged NleL C753A mutant (E. coli O157:H7 Sakai strain, UniProt A0A0H3JDV8 1-782, C753A); assay: pull-down; conditions: both partners purified
T1 construct: also called GST-NleL-CA; NleL-CA
T1 sequence: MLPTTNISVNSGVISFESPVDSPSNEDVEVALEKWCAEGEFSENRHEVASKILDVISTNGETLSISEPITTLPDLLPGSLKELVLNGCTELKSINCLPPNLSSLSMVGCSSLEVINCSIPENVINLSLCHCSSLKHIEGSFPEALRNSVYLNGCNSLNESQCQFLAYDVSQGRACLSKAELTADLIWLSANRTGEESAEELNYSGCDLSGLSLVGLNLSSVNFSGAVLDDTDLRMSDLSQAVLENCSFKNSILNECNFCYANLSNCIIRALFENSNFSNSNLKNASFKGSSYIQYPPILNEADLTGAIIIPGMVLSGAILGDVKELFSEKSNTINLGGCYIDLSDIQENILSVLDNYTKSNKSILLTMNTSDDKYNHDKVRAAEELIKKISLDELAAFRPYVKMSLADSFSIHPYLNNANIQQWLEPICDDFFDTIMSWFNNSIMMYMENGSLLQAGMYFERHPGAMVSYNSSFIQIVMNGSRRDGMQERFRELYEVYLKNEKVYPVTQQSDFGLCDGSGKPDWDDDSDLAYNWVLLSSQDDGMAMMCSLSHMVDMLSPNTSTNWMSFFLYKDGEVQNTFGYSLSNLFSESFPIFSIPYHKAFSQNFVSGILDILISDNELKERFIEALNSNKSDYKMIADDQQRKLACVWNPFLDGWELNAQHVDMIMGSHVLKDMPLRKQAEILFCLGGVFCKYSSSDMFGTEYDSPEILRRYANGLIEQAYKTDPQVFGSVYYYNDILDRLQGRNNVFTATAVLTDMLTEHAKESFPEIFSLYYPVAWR

[2] = molecular target: T2, GST-tagged wild-type NleL (full length) (E. coli O157:H7 Sakai strain, UniProt A0A0H3JDV8 1-782); assay: pull-down; conditions: both partners purified
T2 construct: also called GST-NleL; EspX7; source: E. coli BL21 (DE3), purified (Glutathione Sepharose)
T2 sequence: T1 sequence with A753C

B1: His6-tagged JNK1 purified from bacteria (enzyme, human, UniProt P45983-2 1-384, looked up)
chain: MSRSKRDNNFYSVEIGDSTFTVLKRYQNLKPIGSGAQGIVCAAYDAILERNVAIKKLSRPFQNQTHAKRAYRELVLMKCVNHKNIIGLLNVFTPQKSLEEFQDVYIVMELMDANLCQVIQMELDHERMSYLLYQMLCGIKHLHSAGIIHRDLKPSNIVVKSDCTLKILDFGLARTAGTSFMMTPYVVTRYYRAPEVILGMGYKENVDLWSVGCIMGEMVCHKILFPGRDYIDQWNKVIEQLGTPCPEFMKKLQPTVRTYVENRPKYAGYSFEKLFPDVLFPADSEHNKLKASQARDLLSKMLVIDASKRISVDEALQHPYINVWYDPSEAEAPPPKIPDKQLDEREHTIEEWKELIYKEVMDLEERTKNGVIRGQPSPLAQVQQ
notes: human JNK1α1 (MAPK8), in pET28a with 6x His tag; also called His-JNK1; source: E. coli BL21 (DE3), purified (Ni-NTA)
binding result [1]: binds
binding result [2]: binds
